Measured values from patent publication US12066430.

Legend:
Assay in all cases: cell-based or functional assay
[1] = target: HLA-A2 on control CD80+HLA-A2+ K562 cells (no defined peptide) (human)
[2] = target: single-chain trimer (SCT) of HLA-A2/MART1 26-35(A27L), on cells (human)
[3] = target: single-chain trimer (SCT) of HLA-A2/NYESO1 157-165(C165V), on cells (human)
[4] = target: single-chain trimer (SCT) of HLA-A2 with the USP7 mutant 9-mer peptide …, on K562 cells (human)

“1G4 TCR (A2/NYESO1 157-165-specific), expressed on cells” gave a percentage of trogocytosis^+ control CD80^+HLA-A2^+ K562 cells (NYESO1-K562 dilution experiment) [1] of 0.33%, a percentage of trogocytosis^+ control cells (MART1-K562 dilution experiment) [1] of 0.41% and a percentage of trogocytosis^+ MART1-K562 cells (one per 10,000 control cells) [2] of 1.6%. For the same substance, the share of MART1-K562 among trogocytosis^- target cells (1:1 mixture, co-incubated with 1G4-Jurkat) [2] was 70.8%, the percentage of trogocytosis^+ NYESO1-K562 target cells (diluted 1:10,000 in control cells) [3] was 70.8% and the share of NYESO1-K562 among trogocytosis^+ target cells (1:1 mixture of NYESO1-K562 and MART1-K562, read by TCR dextramer staining) [3] was 95.1%. It also gave a share of NYESO1-K562 among trogocytosis^- target cells (1:1 mixture, co-incubated with 1G4-Jurkat) [3] of 23.7% and a trogocytosis (TCR transfer to K562) of CD8 co-expressing Jurkat cells relative to those only expressing TCR [3] of 3 fold.

Work on “F5 TCR (HLA-A2/MART1 26-35-specific), expressed on cells” yielded a percentage of trogocytosis^+ control CD80^+HLA-A2^+ K562 cells (NYESO1-K562 dilution experiment) [1] of 0.35%, a percentage of trogocytosis^+ control cells (MART1-K562 dilution experiment) [1] of 0.46% and a Specific Cytotoxic Killing (Avg. % Specific Lysis), E:T 2 to 1 (Avg. % Specific Lysis) [4] of 0.0644. It also gave a Specific Cytotoxic Killing (Avg. % Specific Lysis), E:T 4 to 1 (Avg. % Specific Lysis) [4] of 0.0366, a Specific Cytotoxic Killing (Avg. % Specific Lysis), E:T 8 to 1 (Avg. % Specific Lysis) [4] of 0.0406 and a Specific Cytotoxic Killing (Avg. % Specific Lysis), E:T 16 to 1 (Avg. % Specific Lysis) [4] of 0. For the same substance, the Specific Cytotoxic Killing (Avg. % Specific Lysis), E:T 2 to 1 (Avg. % Specific Lysis) [2] was 0.16, the Specific Cytotoxic Killing (Avg. % Specific Lysis), E:T 4 to 1 (Avg. % Specific Lysis) [2] was 0.268 and the Specific Cytotoxic Killing (Avg. % Specific Lysis), E:T 8 to 1 (Avg. % Specific Lysis) [2] was 0.377. It also gave a Specific Cytotoxic Killing (Avg. % Specific Lysis), E:T 16 to 1 (Avg. % Specific Lysis) [2] of 0.593, a percentage of trogocytosis^+ MART1-K562 cells (one per 10,000 control cells) [2] of 73.4% and a share of MART1-K562 among trogocytosis^+ target cells (1:1 mixture, co-incubated with F5-Jurkat) [2] of 94.9%. For the same substance, the share of MART1-K562 among trogocytosis^- target cells (1:1 mixture, co-incubated with F5-Jurkat) [2] was 18.8%, the shift in LNGFR and TCR staining of K562 target cells [2] was 2 to 3 fold and the shift in streptavidin staining of K562 target cells (transfer of biotinylated Jurkat membrane proteins) [2] was 3.5 fold. For the same substance, the trogocytosis (TCR transfer to K562) of CD8 co-expressing Jurkat cells relative to those only expressing TCR [2] was 3 fold, the percentage of trogocytosis^+ NYESO1-K562 target cells (diluted 1:10,000 in control cells) [3] was 0% and the share of NYESO1-K562 among trogocytosis^- target cells (1:1 mixture, co-incubated with F5-Jurkat) [3] was 76.3%.
